Values belong to the binder of their own block, whether it stands above or below them.
What was measured:
MBP:AtMS2 = target: T1, MBP:AtMS2 (Arabidopsis thaliana, UniProt Q9SRV5 1-765); test: native gel or EMSA; super shift of a Texas red-labeled WUS or WOX5 promoter probe; 20 uL binding buffer (10 mM Hepes-KOH pH 7.8, 20 mM KCl, 10 mM MgCl2, 1 mM DTT, 0.1% BSA, 5% glycerol, 0.5% Triton-X100, 20 ng/uL salmon sperm DNA), 22 °C, 30 min; 6% polyacrylamide gel; details: both partners purified
T1 construct: METHIONINE SYNTHASE 2 (AtMS2), Arabidopsis thaliana, At3g03780; cloned into the pMBP-c vector; source: E. coli BL21, purified (amylose resin)
T1 sequence (looked up): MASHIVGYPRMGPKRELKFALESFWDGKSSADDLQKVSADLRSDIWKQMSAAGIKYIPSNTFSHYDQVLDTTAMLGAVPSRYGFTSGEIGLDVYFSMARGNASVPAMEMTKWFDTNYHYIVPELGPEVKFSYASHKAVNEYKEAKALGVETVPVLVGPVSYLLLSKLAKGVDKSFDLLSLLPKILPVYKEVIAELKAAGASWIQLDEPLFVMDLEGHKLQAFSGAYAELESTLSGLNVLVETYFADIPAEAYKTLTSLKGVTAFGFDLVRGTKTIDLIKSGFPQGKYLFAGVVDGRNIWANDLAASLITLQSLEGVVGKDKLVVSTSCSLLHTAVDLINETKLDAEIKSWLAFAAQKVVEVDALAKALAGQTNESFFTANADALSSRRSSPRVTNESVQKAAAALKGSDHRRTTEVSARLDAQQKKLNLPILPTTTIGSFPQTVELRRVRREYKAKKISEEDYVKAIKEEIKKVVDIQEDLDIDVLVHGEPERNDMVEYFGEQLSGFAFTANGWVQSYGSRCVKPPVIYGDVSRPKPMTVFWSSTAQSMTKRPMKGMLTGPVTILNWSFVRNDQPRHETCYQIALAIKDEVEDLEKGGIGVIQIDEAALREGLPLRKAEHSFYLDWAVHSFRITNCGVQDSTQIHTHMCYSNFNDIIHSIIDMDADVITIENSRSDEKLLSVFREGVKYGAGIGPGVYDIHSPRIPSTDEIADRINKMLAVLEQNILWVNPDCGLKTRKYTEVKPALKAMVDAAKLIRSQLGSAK

[1] = target: T2, GST:AtMS2 (Arabidopsis METHIONINE SYNTHASE 2 fused with GST) (Arabidopsis thaliana, UniProt Q9SRV5 1-765); test: pull-down; MBP fusions or MBP immobilised on amylose resin, incubated with GST:AtMS2; 50 mM Tris-HCl pH 7.4, 200 mM NaCl, 5.0% glycerol, 1.5% Triton X-100, 10 mM NaF, 1.0 mM Na3VO4, 1.0 mM PMSF; 1.5 h at 4 °C; immunoblot with anti-GST antibody; details: both partners purified
T2 construct: METHIONINE SYNTHASE 2 (AtMS2), Arabidopsis thaliana, At3g03780; AtMS2 cDNA cloned into pGEX-4T-1; also called AtMS2 protein fused with GST; AtMS2 in fusion with GST; source: E. coli BL21, purified (glutathione resin)
T2 sequence (looked up): T1 sequence (looked up)

binding result (MBP:AtMS2): binds
binding result [1]: binds
B1: MBP:WOX5 (natural protein, Arabidopsis thaliana, UniProt Q8H1D2 1-182, looked up)
chain: MSFSVKGRSLRGNNNGGTGTKCGRWNPTVEQLKILTDLFRAGLRTPTTDQIQKISTELSFYGKIESKNVFYWFQNHKARERQKRRKISIDFDHHHHQPSTRDVFEISEEDCQEEEKVIETLQLFPVNSFEDSNSKVDKMRARGNNQYREYIRETTTTSFSPYSSCGAEMEHPPPLDLRLSFL
notes: WUSCHEL-RELATED HOMEOBOX 5 (WOX5), Arabidopsis thaliana, At3g11260; cloned into the pMBP-c vector; also called MBP-tagged WOX5; source: E. coli BL21, purified (amylose resin)

binding result (MBP:AtMS2): binds
binding result [1]: binds
B2: MBP (maltose-binding protein):WUS fusion protein (natural protein, Arabidopsis thaliana, UniProt Q9SB92 1-292, looked up)
chain: MEPPQHQHHHHQADQESGNNNNNKSGSGGYTCRQTSTRWTPTTEQIKILKELYYNNAIRSPTADQIQKITARLRQFGKIEGKNVFYWFQNHKARERQKKRFNGTNMTTPSSSPNSVMMAANDHYHPLLHHHHGVPMQRPANSVNVKLNQDHHLYHHNKPYPSFNNGNLNHASSGTECGVVNASNGYMSSHVYGSMEQDCSMNYNNVGGGWANMDHHYSSAPYNFFDRAKPLFGLEGHQEEEECGGDAYLEHRRTLPLFPMHGEDHINGGSGAIWKYGQSEVRPCASLELRLN
notes: WUSCHEL (WUS), Arabidopsis thaliana, At2g17950; cloned into the pMBP-c vector; also called MBP:WUS; MBP-tagged WUS; source: E. coli BL21, purified (amylose resin)

binding result [1]: binds
B3: MBP:WOX4 (natural protein, Arabidopsis thaliana, UniProt Q6X7J9 1-251, looked up)
chain: MKVHEFSNGFSSSWDQHDSTSSLSLSCKRLRPLAPKLSGSPPSPPSSSSGVTSATFDLKNFIRPDQTGPTKFEHKRDPPHQLETHPGGTRWNPTQEQIGILEMLYKGGMRTPNAQQIEHITLQLGKYGKIEGKNVFYWFQNHKARERQKQKRNNLISLSCQSSFTTTGVFNPSVTMKTRTSSSLDIMREPMVEKEELVEENEYKRTCRSWGFENLEIENRRNKNSSTMATTFNKIIDNVTLELFPLHPEGR
notes: WUSCHEL-RELATED HOMEOBOX 4 (WOX4), Arabidopsis thaliana, At1g46480; cloned into the pMBP-c vector; also called MBP-tagged WOX4; source: E. coli BL21, purified (amylose resin)
